Among the data in the Human Domainome abundance scans (Beltran et al. 2025) are abundance fitness values, retold here.

B1: Zinc finger homeobox protein 4, residues 2183 to 2238; numbered along this chain, Q86UP3 (parent)
chain: SSRTRFTDYQLRVLQDFFDTNAYPKDDEIEQLSTVLNLPTRVIVVWFQNARQKARK

± gives the uncertainty stated by the source.

In the data set the parent is B1. Nature of the data set: abundance fitness (aPCA) (normalised: wild type 0, dead -1); higher = more abundant; growth selection in yeast, the domain comes from the species named. To be noted: Homo sapiens.
As to SSRTRFTDYQLRVLQDFFDTNAYPKDDEIEQLSTVLNLPTRVIVVSFQNARQKARK [W46S], the abundance fitness is -0.403 ± 0.17.

With SSRTRFTDYQLRVLQDFFDTNAYPKDDEIEQLSTVLNLPTRVIVVAFQNARQKARK [W46A], the abundance fitness is -0.669 ± 0.19. To SSRTRFTDYQLRVLQDFFDTNAYPKDDEIEQLSTVLNLPTRVIVVPFQNARQKARK [W46P] belongs -0.656 ± 0.36. To SSRTRFTDYQLRVLQDFFDTNAYPKDDEIEQLSTVLNLPTRVIVVMFQNARQKARK [W46M] belongs -0.864 ± 0.3; to SSRTRFTDYQLRVLQDFFDTNAYPKDDEIEQLSTVLNLPTRVIVVRFQNARQKARK [W46R], -0.344 ± 0.11; to SSRTRFTDYQLRVLQDFFDTNAYPKDDEIEQLSTVLNLPTRVIVVVFQNARQKARK [W46V], -0.803 ± 0.18. Take SSRTRFTDYQLRVLQDFFDTNAYPKDDEIEQLSTVLNLPTRVIVVCFQNARQKARK [W46C]: the abundance fitness was -0.366 ± 0.21. On to SSRTRFTDYQLRVLQDFFDTNAYPKDDEIEQLSTVLNLPTRVIVVTFQNARQKARK [W46T], for which the abundance fitness was -0.972 ± 0.48. Regarding SSRTRFTDYQLRVLQDFFDTNAYPKDDEIEQLSTVLNLPTRVIVVGFQNARQKARK [W46G], the abundance fitness is -0.559 ± 0.16. To SSRTRFTDYQLRVLQDFFDTNAYPKDDEIEQLSTVLNLPTRVIVVLFQNARQKARK [W46L] belongs -0.691 ± 0.17; to SSRTRFTDYQLRVLQDFFDTNAYPKDDEIEQLSTVLNLPTRVIVVEFQNARQKARK [W46E], -0.396 ± 0.27; to SSRTRFTDYQLRVLQDFFDTNAYPKDDEIEQLSTVLNLPTRVIPVWFQNARQKARK [V44P], -0.356 ± 0.075.

SSRTRFTDYQLRVLQDFFDTNAYPKDDEIEQLSTVLNLPTRVIRVWFQNARQKARK [V44R]: the abundance fitness was -0.099 ± 0.081. To SSRTRFTDYQLRVLQDFFDTNAYPKDDEIEQLSTVLNLPTRVIMVWFQNARQKARK [V44M] belongs -0.136 ± 0.1; to SSRTRFTDYQLRVLQDFFDTNAYPKDDEIEQLSTVLNLPTRVIQVWFQNARQKARK [V44Q], -0.052 ± 0.089; to SSRTRFTDYQLRVLQDFFDTNAYPKDDEIEQLSTVLNLPTRVINVWFQNARQKARK [V44N], 0.002 ± 0.082. To SSRTRFTDYQLRVLQDFFDTNAYPKDDEIEQLSTVLNLPTRVITVWFQNARQKARK [V44T] belongs -0.094 ± 0.07; to SSRTRFTDYQLRVLQDFFDTNAYPKDDEIEQLSTVLNLPTRVIYVWFQNARQKARK [V44Y], -0.223 ± 0.093; to SSRTRFTDYQLRVLQDFFDTNAYPKDDEIEQLSTVLNLPTRVISVWFQNARQKARK [V44S], 0.008 ± 0.07. To SSRTRFTDYQLRVLQDFFDTNAYPKDDEIEQLSTVLNLPTRVIWVWFQNARQKARK [V44W] belongs -0.253 ± 0.12; to SSRTRFTDYQLRVLQDFFDTNAYPKDDEIEQLSTVLNLPTRVILVWFQNARQKARK [V44L], 0.042 ± 0.068.

Regarding SSRTRFTDYQLRVLQDFFDTNAYPKDDEIEQLSTVLNLPTRVIVVWGQNARQKARK [F47G], the abundance fitness is -0.342 ± 0.09.

In the case of SSRTRFTDYQLRVLQDFFDTNAYPKDDEIEQLSTVLNLPTRVIVVWNQNARQKARK [F47N], the abundance fitness was -0.778 ± 0.41. In the case of SSRTRFTDYQLRVLQDFFDTNAYPKDDEIEQLSTVLNLPTRVIVVWIQNARQKARK [F47I], the abundance fitness is 0.044 ± 0.4. To SSRTRFTDYQLRVLQDFFDTNAYPKDDEIEQLSTVLNLPTRVIVVWHQNARQKARK [F47H] belongs -0.6 ± 0.47; to SSRTRFTDYQLRVLQDFFDTNAYPKDDEIEQLSTVLNLPTRVIVVWAQNARQKARK [F47A], -0.406 ± 0.12. To SSRTRFTDYQLRVLQDFFDTNAYPKDDEIEQLSTVLNLPTRVIVVWPQNARQKARK [F47P] belongs -1.06 ± 0.32.

Turning to SSRTRFTDYQLRVLQDFFDTNAYPKDDEIEQLSTVLNLPTRVIVVWEQNARQKARK [F47E], the abundance fitness is -0.967 ± 0.16.

SSRTRFTDYQLRVLQDFFDTNAYPKDDEIEQLSTVLNLPTRVIVVWDQNARQKARK [F47D]: the abundance fitness is -0.4 ± 0.24. For SSRTRFTDYQLRVLQDFFDTNAYPKDDEIEQLSTVLNLPTRVIVVWLQNARQKARK [F47L], the abundance fitness was -0.016 ± 0.092.

Take SSRTRFTDYQLRVLQDFFDTNAYPKDDEIEQLSTVLNLPTRVIVVWMQNARQKARK [F47M]: the abundance fitness was -0.334 ± 0.15.

For the variant SSRTRFTDYQLRVLQDFFDTNAYPKDDEIEQLSTVLNLPTRVIVVWKQNARQKARK [F47K], the abundance fitness was -0.694 ± 0.2. As for SSRTRFTDYQLRVLQDFFDTNAYPKDDEIEQLSTVLNLPTRVIVVWCQNARQKARK [F47C], the abundance fitness is -0.471 ± 0.18. To SSRTRFTDYQLRVLQDFFDTNAYPKDDEIEQLSTVLNLPTRVIVIWFQNARQKARK [V45I] belongs -0.175 ± 0.12; to SSRTRFTDYQLRVLQDFFDTNAYPKDDEIEQLSTVLNLPTRVIVPWFQNARQKARK [V45P], -0.245 ± 0.2; to SSRTRFTDYQLRVLQDFFDTNAYPKDDEIEQLSTVLNLPTRVIVGWFQNARQKARK [V45G], 0.047 ± 0.1. For SSRTRFTDYQLRVLQDFFDTNAYPKDDEIEQLSTVLNLPTRVIVSWFQNARQKARK [V45S], the abundance fitness stood at 0.072 ± 0.15. Consider SSRTRFTDYQLRVLQDFFDTNAYPKDDEIEQLSTVLNLPTRVIVEWFQNARQKARK [V45E], for which the abundance fitness was -0.049 ± 0.19. Consider SSRTRFTDYQLRVLQDFFDTNAYPKDDEIEQLSTVLNLPTRVIVKWFQNARQKARK [V45K], for which the abundance fitness is -0.26 ± 0.16. To SSRTRFTDYQLRVLQDFFDTNAYPKDDEIEQLSTVLNLPTRVIVHWFQNARQKARK [V45H] belongs -0.298 ± 0.34. To SSRTRFTDYQLRVLQDFFDTNAYPKDDEIEQLSTVLNLPTRVIVYWFQNARQKARK [V45Y] belongs -0.149 ± 0.28. Turning to SSRTRFTDYQLRVLQDFFDTNAYPKDDEIEQLSTVLNLPTRVIVRWFQNARQKARK [V45R], the abundance fitness is -0.335 ± 0.11. As to SSRTRFTDYQLRVLQDFFDTNAYPKDDEIEQLSTVLNLPTRVIVNWFQNARQKARK [V45N], the abundance fitness is -0.402 ± 0.44. To SSRTRFTDYQLRVLQDFFDTNAYPKDDEIEQLSTVLNLPTRVIVAWFQNARQKARK [V45A] belongs -0.09 ± 0.11; to SSRTRFTDYQLRVLQDFFDTNAYPKDDEIEQLSTVLNLPTRVIVQWFQNARQKARK [V45Q], -0.242 ± 0.19. As to SSRTRFTDYQLRVLQDFFDTNAYPKDDEIEQLSTVLNLPTRVIVLWFQNARQKARK [V45L], the abundance fitness was 0.007 ± 0.1. Regarding SSRTRFTDYQLRVLQDFFDTNAYPKDDEIEQLSTVLNLPTRVIVDWFQNARQKARK [V45D], the abundance fitness amounted to 0.528 ± 0.19.
